From patent US10556936B2, “Immunogenic proteins and fragments thereof from allergenic mites” (ALK-ABELLÓ A/S, priority 2016, dated 2020)

Assays:
Type in all cases: cell-based, human
[1] = test system: basophils in whole blood from HDM allergic donors; experiment: Basophil Activation Test (BAT); details: blood from HDM allergic individuals (n=14)
Outline: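 Whole blood from HDM-allergic donors (n=14) was stimulated for 1 h with test proteins across a concentration range, e.g. 1, 10, 100 or 1000 ng/ml. Basophil surface activation markers were measured by flow cytometry, with Der p 1 and Der p 2 tested at the same concentrations as controls.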

[2] = test system: T cell lines obtained from HDM allergic individuals and non-allergics; experiment: In vitro T cell proliferation test in T cell lines (Example 3); details: 0.5 or 2 ug/ml, 72 h; for % responders of in-vitro T cell proliferation test, Allergic: T cell lines from HDM allergic individuals (n=30); for % responders of in-vitro T cell proliferation test, Non-allergics: T cell lines from non-allergics (n=8)
Outline: (§1)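 Freshly isolated PBMC (5×10^6/ml) from mite-allergic patients or non-allergics cultured 5 days with test protein up to 10 ug/ml; IFN-gamma, IL-9, IL-10, IL-17, IL-31 in supernatants by multiplex immunoassay. T cell lines, raised 3 weeks on HDM extract, tested at 0.5 or 2 ug/ml protein in 72 h proliferation assay.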

[3] = test system: PBMC cells obtained from mite allergic patients and non-allergics; experiment: Ex vivo stimulation of PBMC: cytokine production (IFN-gamma, IL-9, IL-10, IL-17, IL-31)
Outline: as §1

B1: A019: house dust mite protein; SEQ ID NO: 1 (Der f), 4 (Der p), 315 (Blo t) (protein)
chain: QVYCNGAAIVSAARSQIGVPYSWGGGGIHGKSRGIGEGANTVGFDCSGLAQYSVYQGTHKVLARVASGQYSDPKCHHVAYGSHQPGDLVFFGNPIHHVGIVSAHGRMINAPHTGTNVREENIWSDHIANVARCW
# of individuals of 14 with positive BAT test ([1]; 1 ng/ml): 2
# of individuals of 14 with positive BAT test ([1]; 10 ng/ml): 2
# of individuals of 14 with positive BAT test ([1]; 100 ng/ml): 2
# of individuals of 14 with positive BAT test ([1]; 1000 ng/ml): 4
% responders of in-vitro T cell proliferation test, Allergic [2]: 39%
% responders of in-vitro T cell proliferation test, Non-allergics [2]: 13%
% HDM allergic individuals with cytokine production in ex-vivo T cell assay IL-5 [3]: 38%
% HDM allergic individuals with cytokine production in ex-vivo T cell assay IL-9 [3]: 56%
% HDM allergic individuals with cytokine production in ex-vivo T cell assay IL-10 [3]: 75%
% HDM allergic individuals with cytokine production in ex-vivo T cell assay IL-13 [3]: 56%
% HDM allergic individuals with cytokine production in ex-vivo T cell assay IL-17 [3]: 100%
% HDM allergic individuals with cytokine production in ex-vivo T cell assay IL-31 [3]: 13%
% HDM allergic individuals with cytokine production in ex-vivo T cell assay INF-g [3]: 50%
% non-allergic individuals with cytokine production in ex-vivo T cell assay IL-5 [3]: 0%
% non-allergic individuals with cytokine production in ex-vivo T cell assay IL-9 [3]: 0%
% non-allergic individuals with cytokine production in ex-vivo T cell assay IL-10 [3]: 100%
% non-allergic individuals with cytokine production in ex-vivo T cell assay IL-13 [3]: 0%
% non-allergic individuals with cytokine production in ex-vivo T cell assay IL-17 [3]: 100%
% non-allergic individuals with cytokine production in ex-vivo T cell assay IL-31 [3]: 17%
% non-allergic individuals with cytokine production in ex-vivo T cell assay INF-g [3]: 100%

B2: A022: house dust mite protein; SEQ ID NO: 19 (Der f), 20 (Der p), 317 (Blo t) (protein)
chain: NWQMVWQDEFNGGHLDQNHWEFETGGGGWGNNELEFYTANRSQNVRVENGHLVIDVRVESYGGRDFTSGRIHSKQAWAYGKFEARARLPSGHHLWPAIWMFPRDSKYGPWAASGEIDIMEYRGDVHDKIEGTIHYGGQWPNNIYTGSGPHHFNVDFSKDFHNFAVEWDTKEIRWYMDGNKYFSVNIDRNMWSGKGNNPYNKNGQPFDQPFRWILNVAVGGNFFGPGPYVTPDQARHWQKHTMEIDYVRVYQWR
# of individuals of 14 with positive BAT test ([1]; 1 ng/ml): 0
# of individuals of 14 with positive BAT test ([1]; 10 ng/ml): 0
# of individuals of 14 with positive BAT test ([1]; 100 ng/ml): 3
# of individuals of 14 with positive BAT test ([1]; 1000 ng/ml): 5
% responders of in-vitro T cell proliferation test, Allergic [2]: 29%
% responders of in-vitro T cell proliferation test, Non-allergics [2]: 0%
% HDM allergic individuals with cytokine production in ex-vivo T cell assay IL-5 [3]: 31%
% HDM allergic individuals with cytokine production in ex-vivo T cell assay IL-9 [3]: 6%
% HDM allergic individuals with cytokine production in ex-vivo T cell assay IL-10 [3]: 6%
% HDM allergic individuals with cytokine production in ex-vivo T cell assay IL-13 [3]: 13%
% HDM allergic individuals with cytokine production in ex-vivo T cell assay IL-17 [3]: 0%
% HDM allergic individuals with cytokine production in ex-vivo T cell assay IL-31 [3]: 0%
% HDM allergic individuals with cytokine production in ex-vivo T cell assay INF-g [3]: 0%
% non-allergic individuals with cytokine production in ex-vivo T cell assay IL-5 [3]: 0%
% non-allergic individuals with cytokine production in ex-vivo T cell assay IL-9 [3]: 0%
% non-allergic individuals with cytokine production in ex-vivo T cell assay IL-10 [3]: 0%
% non-allergic individuals with cytokine production in ex-vivo T cell assay IL-13 [3]: 0%
% non-allergic individuals with cytokine production in ex-vivo T cell assay IL-17 [3]: 0%
% non-allergic individuals with cytokine production in ex-vivo T cell assay IL-31 [3]: 0%
% non-allergic individuals with cytokine production in ex-vivo T cell assay INF-g [3]: 17%

B3: A020: house dust mite protein; SEQ ID NO: 15 (Der f), 16 (Der p); Blo t SEQ ID NO: 316 printed as A0019 (protein)
chain: MSKPIFYYHPFSGPCRTVSTVAKILNVDMEMKKLDLLTKEHLNPEFLKVNPFHKVPTFVDSDGFVVDESRVIAMYLVESRKPDSFLYPKNDLKKRIQIDRWLHYDINLSTTISAPMFCVFRGHQVQDYQVEQGKETLKTLDGVMQSFEGKFLTGADQFTLADIAMYFSLNTMEVYPKYFKFDDYPNLKSWYHRVAEALKQYDTEGTIPKAIETMKQFIQQRAAEAEKH
# of individuals of 14 with positive BAT test ([1]; 1 ng/ml): 0
# of individuals of 14 with positive BAT test ([1]; 10 ng/ml): 1
# of individuals of 14 with positive BAT test ([1]; 100 ng/ml): 1
# of individuals of 14 with positive BAT test ([1]; 1000 ng/ml): 1
% responders of in-vitro T cell proliferation test, Allergic [2]: 18%
% responders of in-vitro T cell proliferation test, Non-allergics [2]: 25%
% HDM allergic individuals with cytokine production in ex-vivo T cell assay IL-5 [3]: 6%
% HDM allergic individuals with cytokine production in ex-vivo T cell assay IL-9 [3]: 0%
% HDM allergic individuals with cytokine production in ex-vivo T cell assay IL-10 [3]: 25%
% HDM allergic individuals with cytokine production in ex-vivo T cell assay IL-13 [3]: 6%
% HDM allergic individuals with cytokine production in ex-vivo T cell assay IL-17 [3]: 6%
% HDM allergic individuals with cytokine production in ex-vivo T cell assay IL-31 [3]: 0%
% HDM allergic individuals with cytokine production in ex-vivo T cell assay INF-g [3]: 0%
% non-allergic individuals with cytokine production in ex-vivo T cell assay IL-5 [3]: 0%
% non-allergic individuals with cytokine production in ex-vivo T cell assay IL-9 [3]: 0%
% non-allergic individuals with cytokine production in ex-vivo T cell assay IL-10 [3]: 0%
% non-allergic individuals with cytokine production in ex-vivo T cell assay IL-13 [3]: 0%
% non-allergic individuals with cytokine production in ex-vivo T cell assay IL-17 [3]: 0%
% non-allergic individuals with cytokine production in ex-vivo T cell assay IL-31 [3]: 0%
% non-allergic individuals with cytokine production in ex-vivo T cell assay INF-g [3]: 17%

B4: A018: house dust mite protein; SEQ ID NO: 5 (Der f), 6 (Der p), 314 (Blo t) (protein)
chain: MVKAVVVLKGDPNVSGTIFFEQQDNGPVKVTGSVQGLKPGLHGFHVHEFGDNTNGCTSAGAHYNPLNKTHGAPNDEERHVGDLGNIEANDKGVANVVIEDSLISLTGEKSIVGRSLVVHADPDDLGRGGHELSKTTGNAGGRLVCGVIGVTK
# of individuals of 14 with positive BAT test ([1]; 1 ng/ml): 0
# of individuals of 14 with positive BAT test ([1]; 10 ng/ml): 0
# of individuals of 14 with positive BAT test ([1]; 100 ng/ml): 0
# of individuals of 14 with positive BAT test ([1]; 1000 ng/ml): 0
% responders of in-vitro T cell proliferation test, Allergic [2]: 0%
% responders of in-vitro T cell proliferation test, Non-allergics [2]: 0%
% HDM allergic individuals with cytokine production in ex-vivo T cell assay IL-5 [3]: 0%
% HDM allergic individuals with cytokine production in ex-vivo T cell assay IL-9 [3]: 6%
% HDM allergic individuals with cytokine production in ex-vivo T cell assay IL-10 [3]: 56%
% HDM allergic individuals with cytokine production in ex-vivo T cell assay IL-13 [3]: 13%
% HDM allergic individuals with cytokine production in ex-vivo T cell assay IL-17 [3]: 44%
% HDM allergic individuals with cytokine production in ex-vivo T cell assay IL-31 [3]: 6%
% HDM allergic individuals with cytokine production in ex-vivo T cell assay INF-g [3]: 19%
% non-allergic individuals with cytokine production in ex-vivo T cell assay IL-5 [3]: 0%
% non-allergic individuals with cytokine production in ex-vivo T cell assay IL-9 [3]: 0%
% non-allergic individuals with cytokine production in ex-vivo T cell assay IL-10 [3]: 67%
% non-allergic individuals with cytokine production in ex-vivo T cell assay IL-13 [3]: 17%
% non-allergic individuals with cytokine production in ex-vivo T cell assay IL-17 [3]: 83%
% non-allergic individuals with cytokine production in ex-vivo T cell assay IL-31 [3]: 0%
% non-allergic individuals with cytokine production in ex-vivo T cell assay INF-g [3]: 33%
